Consider two molecules from paper PMC6391002, “Myc-induced nuclear antigen constrains a latent intestinal epithelial cell-intrinsic anthelmintic pathway” (PLoS ONE, 2019).

In one data set the test system is L3 TM larvae. Format: cell-based, Trichuris muris. As to the method:
Synthetic reduced (r-)Defa1, r-Defa2, r-Defa4, r-Defa5 and r-Defa6, r-Defa20, r-Defa21, r-Defa23 and r-Defa24 were purchased from Medical and Biological Laboratories Co., Ltd. (Nagoya, japan) and stored at -30°C until use. Three pairs of disulfide bonds were introduced into synthetic Defa1 and Defa4 (Medical and Biological Laboratories Co., Ltd., Nagoya, japan) by air oxidation as described previously. Using reverse-phase high-performance liquid chromatography (RP-HPLC) reaction mixtures were applied to C-18 columns (SepaxHP-C18, 4.6 x 150mm, […]; Sepax Technologies, Newark, DE, USA) in 0.1% trifluoroacetic acid with an 18–36% acetonitrile gradient developed over 30min at 1ml/min. […] Disulfide bond status of Defas was evaluated by acid-urea PAGE and MALDI-TOF MS (Voyager-DE PRO; Applied Biosystems, Carlsbad, Calif., USA) as described previously. […]
Supplementary file pone.0211244.s012.pdf: S12 Fig Cytotoxic activity of α-defensins toward L3 TM larvae. Cytotoxic activity of reduced (r-) α-defensins 5, 20, 21, 23 and 24 against L3 TM larvae was measured by lactate dehydrogenase release assay. […]
Cytotoxic activity of reduced (r-) α-defensins 1, 2, 4, 5 and 6 against L3 TM larvae was measured by lactate dehydrogenase release assay. […]
Cytotoxic activity of reduced (r-) and oxidized (o-) α-defensins 1 and 4 against L3 TM larvae was measured by lactate dehydrogenase release assay. […]

For data set [1], the system named is LPS; macrophage production of TNF. As to conditions: reduced peptide; ref [27]; cited from earlier work. The text has this: Given the prominence of α-defensin and α-defensin-related genes in the Mina genetic perturbation signature we considered whether they might contribute to the IEC-intrinsic roles of Mina in response to TM infection. Upregulation of α-defensins in Mina^ΔIEC mice could promote accelerated TM expulsion via multiple non-mutually exclusive mechanisms. First, it is well established that α-defensins can shape commensal microbiota diversity. Thus, α-defensins may act indirectly by altering commensal microbiota diversity, thereby eliminating niches essential for, or creating ones hostile toward, ...

Turning to “Defa1: Synthetic reduced mouse α-defensin 1 peptide purchased from Medical and Biological Laboratories (LRDLVCYCRSRGCKGRERMNGTCRKGHLLYTLCCR; Alpha-defensin 1 reduced; UniProt P11477 59-93, looked up)”, in the data set on L3 TM larvae, the “cytotoxicity against L3 TM larvae after oxidation of the peptide (oxidized, o-, form with three disulfide bonds), S14 Fig” value is “abolished by oxidation”.

B1: HD5: Reduced human enteric defensin 5, literature result (peptide, UniProt Q01523 20-94, looked up)
Defensin alpha 5: ESLQERADEATTQKQSGEDNQDLAISFAGNGLSALRTSGSQARATCYCRTGRCATRESLSGVCEISGRLYRLCCR
modifications: Defensin-5 reduced form
notes: Reduced human enteric defensin 5, literature result
Regarding B1, in data set [1], the LPS neutralization result is reported as “can neutralize LPS” and the “macrophage production of TNF” value is recorded as “suppress”.
